This note sets out measurements from patent publication US20230399394A1 (SUNSHINE GUOJIAN PHARMACEUTICAL SHANGHAI, published 2023).

Changes are numbered by the printed parent chain.

Assay [1] deals with T1, IL-33 mutant protein D68A (human, UniProt O95760 112-270).
T1 construct: Prokaryotic expression
T1 chain: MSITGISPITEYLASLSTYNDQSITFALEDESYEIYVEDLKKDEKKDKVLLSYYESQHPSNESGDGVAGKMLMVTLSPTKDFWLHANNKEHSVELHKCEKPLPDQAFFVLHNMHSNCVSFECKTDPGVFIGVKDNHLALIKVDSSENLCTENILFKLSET
In words: ELISA as Example 9; row D68A against WT-3. The protocol:
(§1) SA protein was diluted to 2 μg/mL to coat ELISA plate at 100 μL/well overnight at 4° C. The plate was washed with PBST (PBS containing 0.05% Tween20) for 3 times, and blocked with 2% BSA prepared in PBS at 200 μL/well, at room temperature for 2 h. After the plate was washed twice with PBST, IL-33-his-biotin protein was diluted to 1 μg/mL with 1% BSA prepared in PBST, and was added to ELISA plate at 100 μL/well. The plate was incubated at room temperature for 1 h, and each monoclonal antibody was diluted with 1% BSA prepared in PBST in a 3-fold gradient. The highest concentration of antibody was 10 μg/mL, and the antibody was diluted for 12 gradients. Each diluted monoclonal antibody was added to ELISA wells with 100 μL/well, and the plate was incubated at room temperature for 1 h. Each sample was added to duplicate wells in parallel. The plate was washed with PBST for 3 times, and HRP-anti human IgG Fc secondary antibody prepared with PBST was diluted at an appropriate ratio, and was added to ELISA wells at 100 μL/well. […] Each reaction solution was shaken uniformly and OD450 nm was read on a microplate reader. The data was analyzed and EC₅₀ was calculated.
(§2) Subsequently, according to the experimental method of Example 9, the affinity of the above mutant proteins to 874F7-Hu1 was determined, and IL-33 proteins (WT-1, WT-2, WT-3, and WT-4) without any mutation were set as controls.

The target in assay [2] is T2, IL-33 mutant protein K48A (human, UniProt O95760 112-270).
T2 construct: Prokaryotic expression
T2 chain: T1 chain with K48A, A68D
In words: ELISA as Example 9; row K48A. The procedure:
as §1, §2

The target in assay [3] is T3, Human IL-33-his (human, UniProt O95760 112-270, biotinylated with EZ-Link NHS-Biotin where used as IL-33-his-biotin).
T3 construct: Used plain (SPR, cell assays) and biotinylated (ELISA); also called IL-33-his-biotin
T3 sequence: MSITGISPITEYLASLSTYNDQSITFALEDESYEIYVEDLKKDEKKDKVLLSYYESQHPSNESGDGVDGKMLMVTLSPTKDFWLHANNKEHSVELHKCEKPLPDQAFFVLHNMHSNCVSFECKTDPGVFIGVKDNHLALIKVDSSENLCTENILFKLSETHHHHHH
Description: ELISA as Example 9, IL-33-his-biotin on streptavidin plate.

The target of assay [4] is T3, Human IL-33-his. In words: SPR Biacore 8K, antibody captured on Protein A/G chip, IL-33-his as analyte, 1:1 model. The procedure: A chip with covalently coupled Protein A/G (purchased from GE Healthcare, catalog number BR-1005-30) was used to capture each antibody to be tested, and the relevant operating parameters were as follows: The antibody concentration was […], the contact time was 75 s, the flow rate was […], and the regeneration contact time was 30 s. The IL-33-his antigen was diluted with HBS-EP pH7.4 buffer solution (purchased from GE Healthcare, catalog number BR-1006-69). The maximum concentration was 50 nM, and diluted to 0.39 nM by two-fold dilution. Duplicate wells and 0 concentration point well were set, and 6M guanidine hydrochloride solution was used as the regeneration buffer. The sample was injected on Biacore 8K according to the following parameters, the binding time was 180 s, the dissociation time was 900 s, the flow rate was 30 μL/min, and the regeneration contact time was 30 s. After running, Biacore 8K Evaluation Software was used to analyze the data according to the “1:1 binding kinetics model”, and the binding kinetics parameters of each antibody to IL-33 were obtained.

Assay [5] concerns the target T4, IL-33 mutant protein V49A (human, UniProt O95760 112-270).
T4 construct: Prokaryotic expression
T4 chain: T1 chain with V49A, A68D
In words: ELISA by the method of Example 9 with the IL-33 mutant protein on the plate, 874F7-Hu1 in serial dilution, HRP anti-human IgG Fc, absorbance 450 nm.

B1: 874F7-Hu1 (antibody, human IgG4 S228P, kappa)
heavy: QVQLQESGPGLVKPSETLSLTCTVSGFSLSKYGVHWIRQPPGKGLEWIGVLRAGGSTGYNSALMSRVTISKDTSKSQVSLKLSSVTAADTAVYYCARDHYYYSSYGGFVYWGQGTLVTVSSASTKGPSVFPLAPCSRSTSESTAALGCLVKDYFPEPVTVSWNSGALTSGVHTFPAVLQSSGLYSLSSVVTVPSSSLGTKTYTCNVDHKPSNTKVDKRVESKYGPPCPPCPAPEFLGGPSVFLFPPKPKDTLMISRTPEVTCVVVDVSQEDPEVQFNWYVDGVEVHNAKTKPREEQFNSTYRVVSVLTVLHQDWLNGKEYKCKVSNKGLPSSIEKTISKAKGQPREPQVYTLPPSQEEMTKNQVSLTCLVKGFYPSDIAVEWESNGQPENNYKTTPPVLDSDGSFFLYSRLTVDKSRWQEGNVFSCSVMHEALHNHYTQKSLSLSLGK
light: DIQMTQSPSSVSASVGDRVTITCLASQTIGAWLAWYQQKPGKSPKLLIYAATRLADGVPSRFSGSGSGTDFTLTISSLQPEDFATYYCQQLDSSPYTFGQGTKVEIKRTVAAPSVFIFPPSDEQLKSGTASVVCLLNNFYPREAKVQWKVDNALQSGNSQESVTEQDSKDSTYSLSSTLTLSKADYEKHKVYACEVTHQGLSSPVTKSFNRGEC
notes: also called 874F7-Hul; humanized antibody 874F7-Hu1
Take B1: the Affinity decline ratio in assay [1] is 1.2 fold. Moreover, in assay [2], the midpoint of the response, the EC50, lay at 0.49 nM. In assay [3], this molecule yielded an EC50 of 0.129 nM. In assay [4], this molecule had a Kd of 2.82 nM, a koff of 0.00057 s⁻¹ and a kon of 202000 M⁻¹ s⁻¹. Also, in assay [5], the “EC50 (read off the curve)” value was around 3 nM.
